This passage reports protein stability index results from the supplement of paper PMC10567573.

Sequences and labels used below:
B1: NP_015628.1 (parent)
chain: EQRNSRWNTVLRAVKAKTHHLEP
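Also: lentivirally expressed fusion library, cells FACS-sorted into six equal-sized GFP/DsRed ratio bins, PSI computed from sequencing read fractions per bin weighted by bin number.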

In the data set the parent is B1. The experiment in a line: protein stability index of a GFP-peptide fusion (GPS, HEK-293T) (PSI 1-6); higher = more stable. The settings on record: c terminus: native.
As for EQRNSRWNTVLRAVKAKTHHLEN [P23N], the protein stability index amounted to 4.98. EQRNSRWNTVLRAVKAKTHHLEA [P23A]: the protein stability index was 4.32. In the case of EQRNSRWNTVLRAVKAKTHHLER [P23R] it was 3.9; in that of EQRNSRWNTVLRAVKAKTHHLEQ [P23Q], 5.08; in that of EQRNSRWNTVLRAVKAKTHHLEL [P23L], 4.39. Consider EQRNSRWNTVLRAVKAKTHHLEE [P23E], for which the protein stability index was determined as 3.95. In the case of EQRNSRWNTVLRAVQAKTHHLEP [K15Q] it was 3.05; in that of EQRNSRWNTVLRAVRAKTHHLEP [K15R], 3.08. Consider EQRNSRWNTVLRAVEAKTHHLEP [K15E], for which the protein stability index was found to be 3.25. On to EQRNSRWNTVLRAVAAKTHHLEP [K15A], for which the protein stability index came out at 3.24.

EQRNSRWNTVLRAVTAKTHHLEP [K15T]: the protein stability index is 2.99.

With EQRNSRWNTVLRAVSAKTHHLEP [K15S], the protein stability index was 3.26. EQRNSRWNTVLRAVPAKTHHLEP [K15P]: the protein stability index came out at 3.14. For the variant EQRNSRWNTVLRAVMAKTHHLEP [K15M], the protein stability index stood at 3.33.

Regarding EQRNSRWNTVLRAVGAKTHHLEP [K15G], the protein stability index is 3.31. The figure for EQRNSRWNTVLRAVDAKTHHLEP [K15D] is 3.21.

Turning to EQRNSRWNTVIRAVKAKTHHLEP [L11I], the protein stability index was found to be 2.51. In the case of EQRNSRWNTVTRAVKAKTHHLEP [L11T] it was 3.12; in that of EQRNSRWNTVWRAVKAKTHHLEP [L11W], 3.69. As to EQRNSRWNTVFRAVKAKTHHLEP [L11F], the protein stability index was 3.9. As for EQRNSRWNTVERAVKAKTHHLEP [L11E], the protein stability index came to 4.36. In the case of EQRNSRWNTVGRAVKAKTHHLEP [L11G] it was 4.32; in that of EQRNSRWNTVSRAVKAKTHHLEP [L11S], 4.1; in that of EQRNSRWNTVKRAVKAKTHHLEP [L11K], 4.86. Consider EQRNSRWNTVCRAVKAKTHHLEP [L11C], for which the protein stability index is 2.47. For the variant EQRNSRWNTVLRAEKAKTHHLEP [V14E], the protein stability index came to 2.45.

Take EQRNSRWNTVLRAAKAKTHHLEP [V14A]: the protein stability index came out at 3.23. Regarding EQRNSRWNTVLRAQKAKTHHLEP [V14Q], the protein stability index was found to be 2.85. Take EQRNSRWNTVLRAPKAKTHHLEP [V14P]: the protein stability index turned out to be 2.73. As for EQRNSRWNTVLRAYKAKTHHLEP [V14Y], the protein stability index turned out to be 2.87.

For the variant EQRNSRWNTVLRAGKAKTHHLEP [V14G], the protein stability index came to 3.31.

In the case of EQRNSRWNTVLRAIKAKTHHLEP [V14I], the protein stability index was 3.37. As to EQRNSRWNTVLRAMKAKTHHLEP [V14M], the protein stability index was determined as 3.07. As to EQRNWRWNTVLRAVKAKTHHLEP [S5W], the protein stability index is 2.46. Turning to EQRNHRWNTVLRAVKAKTHHLEP [S5H], the protein stability index worked out at 2.62.

Take EQRNPRWNTVLRAVKAKTHHLEP [S5P]: the protein stability index turned out to be 2.78. Regarding EQRNTRWNTVLRAVKAKTHHLEP [S5T], the protein stability index worked out at 2.93.

Regarding EQRNYRWNTVLRAVKAKTHHLEP [S5Y], the protein stability index is 2.38. Regarding EQRNQRWNTVLRAVKAKTHHLEP [S5Q], the protein stability index is 2.67. With EQRNMRWNTVLRAVKAKTHHLEP [S5M], the protein stability index is 2.4. As for EQRNKRWNTVLRAVKAKTHHLEP [S5K], the protein stability index amounted to 2.28. In the case of EQRNGRWNTVLRAVKAKTHHLEP [S5G] it was 3.32; in that of EQRNLRWNTVLRAVKAKTHHLEP [S5L], 2.48; in that of EQRNSRANTVLRAVKAKTHHLEP [W7A], 5.18. On to EQRNSRFNTVLRAVKAKTHHLEP [W7F], for which the protein stability index is 4.71. In the case of EQRNSRMNTVLRAVKAKTHHLEP [W7M] it was 5.33; in that of EQRNSRTNTVLRAVKAKTHHLEP [W7T], 5.14; in that of EQRNSRSNTVLRAVKAKTHHLEP [W7S], 5.32. Turning to EQRNSRKNTVLRAVKAKTHHLEP [W7K], the protein stability index was found to be 5.46. With EQRNSRRNTVLRAVKAKTHHLEP [W7R], the protein stability index stood at 5.19. Consider EQRNSHWNTVLRAVKAKTHHLEP [R6H], for which the protein stability index came out at 3.45. Consider EQRNSFWNTVLRAVKAKTHHLEP [R6F], for which the protein stability index is 3.03. For EQRNSEWNTVLRAVKAKTHHLEP [R6E], the protein stability index was 3.39. In the case of EQRNSAWNTVLRAVKAKTHHLEP [R6A] it was 2.85. For the variant EQRNSPWNTVLRAVKAKTHHLEP [R6P], the protein stability index came to 2.51. On to EQRNSIWNTVLRAVKAKTHHLEP [R6I], for which the protein stability index was 3.4.

On to EQRNSTWNTVLRAVKAKTHHLEP [R6T], for which the protein stability index is 2.48. Regarding EQRNSSWNTVLRAVKAKTHHLEP [R6S], the protein stability index was 2.4. EQRNSGWNTVLRAVKAKTHHLEP [R6G]: the protein stability index was determined as 3.11.

As to EQRNSRWNTVLRAVKAKTHLLEP [H20L], the protein stability index was 3.6.

Turning to EQRNSRWNTVLRAVKAKTHQLEP [H20Q], the protein stability index is 2.89. The figure for EQRNSRWNTVLRAVKAKTHYLEP [H20Y] is 3.25; for EQRNSRWNTVLRAVKAKTHALEP [H20A] it is 2.81; for EQRNSRWNTVLRAVKAKTHGLEP [H20G] it is 1.9. Consider EQRNSRWNTVLRAVKAKTHWLEP [H20W], for which the protein stability index was found to be 3.46. On to EQRNSRWNTVLRAVKAKTHNLEP [H20N], for which the protein stability index was 3.47.

Regarding EQRNSRWNTVLRAVKAKTHKLEP [H20K], the protein stability index was 4.01.

On to EQRNSRWNTVLRAVKAKTHTLEP [H20T], for which the protein stability index was determined as 3.27. As for EQRNSRWNTVLRKVKAKTHHLEP [A13K], the protein stability index came to 2.87. As for EQRNSRWNTVLRDVKAKTHHLEP [A13D], the protein stability index amounted to 2.78.

As for EQRNSRWNTVLRCVKAKTHHLEP [A13C], the protein stability index came out at 3.08.

As for EQRNSRWNTVLRQVKAKTHHLEP [A13Q], the protein stability index worked out at 2.7. In the case of EQRNSRWNTVLRHVKAKTHHLEP [A13H] it was 2.94; in that of ESRNSRWNTVLRAVKAKTHHLEP [Q2S], 2.87; in that of EIRNSRWNTVLRAVKAKTHHLEP [Q2I], 3.24. In the case of EGRNSRWNTVLRAVKAKTHHLEP [Q2G] it was 2.74; in that of ENRNSRWNTVLRAVKAKTHHLEP [Q2N], 2.88; in that of EWRNSRWNTVLRAVKAKTHHLEP [Q2W], 2.78. In the case of EARNSRWNTVLRAVKAKTHHLEP [Q2A] it was 2.98; in that of EDRNSRWNTVLRAVKAKTHHLEP [Q2D], 3.43; in that of ECRNSRWNTVLRAVKAKTHHLEP [Q2C], 2.93. On to EQRNSRWNTVLRAVKAKNHHLEP [T18N], for which the protein stability index turned out to be 2.82. For the variant EQRNSRWNTVLRAVKAKCHHLEP [T18C], the protein stability index turned out to be 2.5. In the case of EQRNSRWNTVLRAVKAKEHHLEP [T18E] it was 3.26; in that of EQRNSRWNTVLRAVKAKDHHLEP [T18D], 3.14; in that of EQRNSRWNTVLRAVKAKYHHLEP [T18Y], 2.84. As for EQRNSRWNTVLRAVKAKHHHLEP [T18H], the protein stability index worked out at 2.76. Turning to EQRNSRWNTVLRAVKAKPHHLEP [T18P], the protein stability index stood at 2.93. Consider EQRNSRWNTVLRAVKAKVHHLEP [T18V], for which the protein stability index stood at 3.12. Turning to EQRNSRWNTVLRAVKAKAHHLEP [T18A], the protein stability index stood at 2.91. Take EQRNSRWNTVLRAVKAKWHHLEP [T18W]: the protein stability index was 3.57. As to EQRNSRWNTVLRAVKAKLHHLEP [T18L], the protein stability index came out at 3.13. The figure for EQRNSRWNTVLRAVKAETHHLEP [K17E] is 2.77; for EQRNSRWNTVLRAVKATTHHLEP [K17T] it is 2.84.

For EQRNSRWNTVLRAVKACTHHLEP [K17C], the protein stability index was 2.61.

For EQRNSRWNTVLRAVKANTHHLEP [K17N], the protein stability index turned out to be 2.69. Take EQRNSRWNTVLRAVKASTHHLEP [K17S]: the protein stability index worked out at 2.85.
